Laboratory results as given in the DeepSol protein solubility set.

Experiment: soluble on expression in E. coli; label from the status in PepcDB or PDB records

| Sequence | soluble on expression in E. coli |
| --- | --- |
| MTDKYRLRERVWDDLEDSGVARFPFPPHGRIPNYAGADEAAARLTETDVWQRAETVKANPDAPQLPVRRAALRAGKTLYAAVPRLRDEECFLRLDPTTIDDIDAATTVSGIEEYGDPVGPGDVDPIDLIVSGSVAVTDRGERVGKGEGYSDLEFALLRAFGRVDDDTATVTTVHERQVVDDAVPTAAHDVPMEYVVTPDRTITTTHEDDTPSGIDWDALDEQRLAEIPVLDRRSP | soluble |
| MSLKKNVYFLLALLLIGLSACDNAPKFKVQGEINGAEDKMLYLEASGLDGIVALDSAKLGSSGSFSFAQKRPESPEFYRLRLDNKVINFAVDSTETVSVKAEINDFATAYRIEGSENNLKIKELVLLQADLQKNVDKLGQNRNIPAGIAQDSLLAMVNNYKNKVKREYIFAAPNMPYAYFALFQSLNGYMIFDPLTNKEDVKCFAAVATSLNNAYPHADRSRNLYNMVIKGMKNTRTPRQQTMEIPEDKIKEASIIDIQLKDLKGNTRSLTDLKGKVVLIDFTVYNNAMSAAHNLALRELYNKYASQGFEIYQISLDGDEHFWKTSADNLPWVCVRDANGAYSSYISLYNVTNLPSVFLVNRNNELSARGENIKDLDEAIKKLLEGHHHHHH | not soluble |
| MGSDKIHHHHHHMKIGFVGAGVGTLHAALLLTKRYPEVEITIFEKESRAGGRLASVDFETGGRIDQGPTIVLMPGKLQEQLREAGLEGVELERIDPLYDLHFDDGTIVTKQADVVDQTIAIERQFGEGRGFQEFMQQKAKDYDVSVSKFLERTYSRKRDLLHPDMLAPLVKMHAMETAHDHLKRFFKSKHLRMAYSFPTFYIGGNPYTTPSIYGLIPYREQEEGVWYVKGGYFSLAERMYEALVERGVTFKFNQPVDRVLIQQGQTKGLVAAGQEYVYDTVVLNGEFPLMEYLVEGKQPKKYVPSGGTLLLYFKIDGKVDLPVHRFLMPSDLKPLMTSIFKKNELPENPAVYLFNPSKIDDALTASGTSVVYALVPSPRGFDQANYEAHGFIDQILDKIEQHLPGFQSQVTEMKIRTPQDAQDFGLYEGGSFGIAPTIRQSAALKTQAKPYADIERLYAVGASVHPCGGVPIVMMGATLLVNRMEQEMRWKNGYSDERISSM | not soluble |
| MGSDKIHHHHHHMDLMSFKEREISKKDCVELFEDTENFFDILKLADSIRKDIVGDTVTFVKNTNIETTNVCTMGCKFCAFSVSKNSPEAFKLDADEIAKKAVIAKKSGLTEVTIHGGIHPDVDTHFQVETINKVNSATSKLGGIYTHAYSPQEILNGAENAGLSIKEALKMLNEAGLRTIPGTAAEILDDEVRSDICPLKMSTKKWIDIMKTAHKTGIKTTSTIIYGHVEEYKHIVDHLSILKELQEETGGITEFIPMSFLHENTPLYKSGRVTDGASGLYELKLYAIARILFKESIKNIQAPRVKIGTKLSQLILKSGANDLGGTLVEDKVSKAAGSIYEDASVDLMKNAITSIGRIPKERTTLYEIIE | not soluble |
| MSTQEDFLKRLESVTSRLEAIAGQKPALAPKPTNLGGPSAYSLHFFFALQFYFSSSPPTSTMDSLYYSAPRPFNKYPRGYRPVTDSTQDLRSFGGGLRPSSSWSSFPQQVVIDQRSATLPHFPSSCVSPVSPTSPVDRNTNYWTAEEPPRSRRPIRSESNSTLFDNNFSPRELSPLSVASEYCNNPQPASMYGHRSVQSPVPAFQDAPPRGYDNVPPPQSYKQPTHPSPSQRETDFLRNLQRQKAEAHNMSSSWYAGDQSSRQTDFGTLPSPQHYNSNSSDHHPPRRLAKTQSDLSFDSLNNTYFNNTSNHTPSNTFLNHSTVDSHNNSSGQLHNSINNYTASTNGNQGHRLDGFFRNRVIEPNWMTDPPPPKSFREDYIIRNAPLNSNLNSDFERFRLEPTYREPRGNSLVSEQPNFRSYHNDEPTQEQPNPRYQRSSSNFMQQRDPSPVRSPPIISYAQQSNPFSFPNPINQVNYNQEDHSSRVSTGGYQDRRVAQAPKEATTNVYQNVPAAAAVNFREKERPTSQYLESNRNSAAFPNEPIKLTNDRVLRIHPHQQVQDQYHHHQMPEEPHYPQPHQPIQQSQRARIQSPLRDFARLTSPIREVAPQPYHPPQAQNQNQNPERIFSPVESKVFNRSGPTVINGFTSNRHTYNSHTDDFDSRNRRDSSQPPVAIIEPNINVHMPSDPMPYNKPHFGHGHGHSNGNNNVHSVKPTSHYSNPTFSPTSTFSPNSNYDNDNDSDLDIEEMARRALPRYLRDNEKTGRHRNLYGDNLHGILIKNPSLHRSSSKKVVFIDQNKASAAASAGDSGEVPAHVRAYDDAIEEPLANWSKLTDQLGGDLAAVKPKVLAMFASMRNYLWSAAGKSEPSAEEAQKMLTPVINLLGEINNFKDTKRKTPHWNHLNSVAEALPALGWVTVKKTPAPYVKEFIEAAQFYINPILREFKETDPRHVEWTKAWKAVFEEMQKFVRQVHTTGLVWNSAPGAAPDASASAPSAAAPSAPKAPAGPGGPPPPPPPPPADFFANIAPPPVDADKASRDALFASLNQGEGVTSRLKKVTADMQTHKNPNLRGTAVVPAAGASQGGSSPAKPAAPVRKPPHKELENGKQWIVEYFVNDPNIVLDVADKKQTVYIYRCENSVIKVNGKANSITLDGCKKTSVVFDALVAQCETVNCQSVQIQTLGELPTLSIQKTDGCQVYLSKVAQGCEIVTSKSSEMNISVQTNDDGDYSEFPVPEQFKTTFVNGKLVTVVSDIC | not soluble |
| MELPFSQACENNKDPILEVLKTAFSDCTRVLEVGSGTGQHAVYFASQLPNIHWQASDQKEYLPGVTARIKQEGVTNQPLPVEFDVFADAPGGTFNALFTANTCHIMPKEGVERLFEHLEGDLSSVERLCIYGPFNDNGHFTSDSNRGFHQSLQSRNSDMGIRDWQWITELANQQGFELKKIHPLPANNQLLEFQRLEHHHHHH | soluble |
| MKKVLIVLLVLLTSFGFSENLDKYESKRVFDKSIQFILDGNYEKLKNDTEMSRVAGNITDAAEAIFAKARPMLKEHKYKVIDVKEKKDISELTVKVEYKVYENVSQEESENFMIKFQEELDEETEEAADIYDKKVQKLLQDNIKSKGIIKDKIIKVYMDKEYGYWDLATDKNEDLLLTLFSVIDSLGLY | not soluble |
| PLHHLMIGTWTPPGAIFTVQFDDEKLTCKLIKRTEIPQDEPISWMTFDHERKNIYGAAMKKWSSFAVKSPTEIVHEASHPIGGHPRANDADTNTRAIFLLAAKQPPYAVYANPFYKFAGYGNVFSVSETGKLEKNVQNYEYQENTGIHGMVFDPTETYLYSADLTANKLWTHRKLASGEVELVGSVDAPDPGDHPRWVAMHPTGNYLYALMEAGNRICEYVIDPATHMPVYTHHSFPLIPPGIPDRDPETGKGLYRADVCALTFSGKYMFASSRANKFELQGYIAGFKLRDCGSIEKQLFLSPTPTSGGHSNAVSPCPWSDEWMAITDDQEGWLEIYRWKDEFLHRVARVRIPEPGFGMNAIWYD | soluble |
| MGMKYLIKLKYIKPAQLAVNREQKLAEFYPIFEDGTLGRVEAKARVFLPEYSDFAKGLGFEVKKRRMITEDDYAYLRAMVYGVVMGVLRNPGDWRRLEERVLEMEPIELRYWASKFRNAYWKYKNMRKLMFLARRFMEVEMILEHHHHHH | soluble |
| MSTGTPTTQKVVKTSIRLGPVNPPTPTRNTQGGHGFSAEFLEYRRRRQERHTVRLAKLPNETLIIGGANPFDARNVPEAIKKFRDLVDEKIGDKVHKKDANKSKIVFREEEEETQNGTITID | not soluble |
| MERSWGMGHFPHMQKKTLDAFVRGLQIVMEAEGIKMKPLSVAAGMGESGVRDLIRNESSPKVANAYALARELGRTVDEIIQIGMTGDLNARPAHAPIAVAGCVGAGARVDLLDAYEKGDGMYHVARPPQLKPHGIVAVEVKGESMMPLYRPGSVLFYTRAAAEGVPVEALNTPCVCEDADGRAWLKVVKVGSQEGTFSLLSLNPDADNMHGVRLKWAAPVLLTLSPDYVERVYV | not soluble |
| MFQLSVQDIHPGEQAGNKEEAIRQIAAALAQAGNVAGGYVDGMLAREQQTSTFLGNGIAIPHGTTDTRDQVLKTGVQVFQFPQGVTWGEGQVAYVAIGIAASSDEHLGLLRQLTHVLSDDSVAEQLKSATTAEELRALLMGEKQSEQLKLDNETMTLDVIASSLVTLQALNAARLKEAGAVDAAFVAKTINDSPMNLGQGIWLNDSAEGNLRSAVAVSRATQAFDVEGEKAALLVTVAMNDEQPIAVLKRLGDLLLNNKADRLLSADAATLLALLTSDDALTDDVLSAEFVVRNEHGLHARPGTMLVNTIKQFNSEITVTNLDGTGKPANGRSLMKVVALGVKKGHRLRFTAQGEDAEQALKAIGDAIAAGLGEGA | not soluble |
| LNKELQHERLAYITDSELIIFADFLPTEFVDEYLIDQSEESVAHIQQALSYEDNKVGRYAEPHFLVANPKNSVGGIKTELLKRGQSPVRLIIVRDVGGVIGTIEPQILLLHENHTKLTDLTVVTPILEDIQTIQSVSKQVSIDGGAHWFPIMAGGKIMGVLSMATIAITLRELSLQAVVAENVRSEEDLFTPLTVATRLRAL | not soluble |
| MGSDKIHHHHHHMEVTRTDKAVTLTWNKEEVSEGTVVFVSSSPKLEANSEPVFKVTNDVDHYSYDTKDIPIYFFLETPNGYYAIVSERILPLESVFNFRDMGGYASKNGKHVKWGKLYRSSNLVNINENDAALLQKLHIKWICDLRSSSEVKAQPTPAIEGILNKHIPIGTAKNEETKLPVTNDTTIYEPLMGESYRVFVQSVEGFREIFTEVLEDAKAGLPFVFHCTAGKDRTGVLGALLLTLLDVPEKTIFDDYAITNRYQDDILQEMGGIVSLFSSGTEKIDLETFRPMAEARPEYLEIAFDEMKKQYGSVANYLEKGIGITATEKAAFQKEMLE | not soluble |
| MNAEDVKGFFASRESLDMEQYLVLDYYLESVGDIETALAHFCSEQSTAQWKRVGVDEDFRLVHAAKVIDYEVIEELEQLSYPVKHSETGKIHACRVTIAHPHCNFGPKIPNLLTAVCGEGTYFTPGVPVVKLMDIHFPDTYLADFEGPKFGIEGLRDILNAHGRPIFFGVVKPNIGLSPGEFAEIAYQSWLGGLDIAKDDEMLADVTWSSIEERAAHLGKARRKAEAETGEPKIYLANITDEVDSLMEKHDVAVRNGANALLINALPVGLSAVRMLSNYTQVPLIGHFPFIASFSRMEKYGIHSKVMTKLQRLAGLDAVIMPGFGDRMMTPEEEVLENVIECTKPMGRIKPCLPVPGGSDSALTLQTVYEKVGNVDFGFVPGRGVFGHPMGPKAGAKSIRQAWEAIEQGISIETWAETHPELQAMVDQSLLKKQD | soluble |
| MGSDKIHHHHHHMDVVLHIGAHRTASSALQHHLSRNRSKLAEAGVVYWGPKITRGGLFRGAIGGVEGALPWQERRFGKRCALRAEAVRQTGATHLMISDENMVGSLRGALEFTRLYSDAGRRIASYAHGFKTHRMTVALCIRDYADWWVSAMAFRLPRGGPLPRTQARERLVTQPRRWRHVVEDLAQALPDARLVVWSYEASAHALPTLVGDLTGVASADDRAGPRNLRPTAADLHDLMDACDIDPDMFHWPDGQFMPFTVHETEALRAQYQEDLAWLRAGARGFADYIDAPSAQTEAPTDLGRGNPDDGEHRQLA | not soluble |
| MAAESQLKRVIETLRRLGIEEVLKLERRDPQYRAVCNVVKRHGETVGSRLAMLNALISYRLTGKGEEHWEYFGKYFSQLEVIDLCRDFLKYIETSPFLKIGVEARKKRALKACDYVPNLEDLGLTLRQLSHIVGARREQKTLVFTIKILNYAYMCSRGVNRVLPFDIPIPVDYRVARLTWCAGLIDFPPEEALRRYEAVQKIWDAVARETGIPPLHLDTLLWLAGRAVLYGENLHGVPKEVIALFQWRGGCRPPSE | soluble |
| NTFYEITLEDESVLLDEVVAIGYGTQSKATVTSGVVSVKKAELMSSVSASPLNNLQGKVAGLDIRQTTGQPGAQPVVLIRGGSTDPANDSPLFVIDGVVRSNMNGLNQEDIESMEVLKDAASAAIYGAKAANGIILITTKQGSSKD | not soluble |
